In the DeepSol protein solubility set:

Test: soluble on expression in E. coli; label from the status in PepcDB or PDB records

Sequence	soluble on expression in E. coli
MGSDKIHHHHHHMEKLFTYKEFVDMMQKYGIRHTKRKLRRGENLMENASKFSNVVLLINGYISSYTYESPEKLLSIFEPGIFLRYSILEDQPEFVTNIALSDNCEVYEYKKEDIEYALTLFPENFGFQYFFLKRIGRHLYYRALLNGKEHKEKLYYAMKYLGELIGKTDENGNVSLPPEVTLKVLIEYSTLSKAAFYRQRIRLLEQEILKPHENTFIVQKKVASHYENQLTSI	not soluble
GPGSMINLPDMWTAEQRRQHVAEMYRNKGLICPDYFLKNECPRSSSCSYIHIRNGETRKVPLSVCHFYAKRACLRDKCVFFHGTQAQLDQLHAMGAQTYRPQDYMAFAIPPPELLGTDQNVAPPVVTMPMPVPAPLVNNTMPISKPATNSPLLLLPIDASAATPFSMYWSSSPCQHRSPLSPAPIPGLAEPRPPAVSHPYTVFSFFQ	not soluble
MKLLILGNHTCGNRGDSAILRGLLDAINILNPHTEVDVMSRYPVSSSWLLNRPVMGDPLFLQMKQHNSAAGVVGRVKKVLRRRYQHQVLLSRVTDTGKLRNIAIAQGFTDFVRLLSGYDAIIQVGGSFFVDLYGVPQFEHALCTFMAKKPLFMIGHSVGPFQDEQFNQLANYVFGHCDALILRESVSLDLMKRSNITTAKVEHGVDTAWLVDHHTEDFTASYAVQHWLDVAAQQKTVAITLRELAPFDKRLGTTQQVYEKAFAGVVNRILDEGYQVIALSTCTGIDSYNKDDRMVALNLRQHISDPARYHVVMDELNDLEMGKILGACELTVGTRLHSAIISMNFATPAIAINYEHKSAGVMQQLGLPEMAIDIRHLLDGSLQAMVADTLGQLPALNARLSEAVSRERQTGMQMVQSVLERIGEVK	soluble
AALDDLIDTLGECEDTNKDDPPYTGPVVLDPMDSTYLEALGIKEGTIPPEYRKLLEKNEAITGPLPDSPKPMGIDHAIDALSSDFT	soluble
MSLDQEQNVSLLVAGDHELLRDAISEILRREGGFSVEVTGSREGVLKQIEERGGFDVILLDLQMPGMSGLDSLREVATSNANGAVAILAGELTRDVVMSAFKAGARGYIPKTLPLRALPIALRLIASGESYVPAWLTNGGGTTQADGPSFDLLPEELQILEEVSDGRTNKQIAFTLNVTEGAIKMKMRAICMKLGAKNRTHAVVIARQHMMLREGHHHHHH	soluble
MSLNIKRFVSWDCVNGIKGVLNENGKFSNNPMGVLNWIKAQTSEIPTILLVRDFHKFYDDPSISRTIKELSSSLRETNNNLILSSHILPSSEELDDLITILNLPLPDLSELTALIKKIAFNTDSDLSEQDLNELAIASSGLSEIKVKQVTAKALAQRGKISEGHHHHHH	not soluble
MGSDKIHHHHHHMRLLDLYLTLRLALSTAVHTLAGRVKGRSYVPHPRTMLFIEPTSHCNLECSFCTYRLDRHPRLTLDMERFEDYVAQARAMGFADMVLTPINGDVFMDRTILDKLRLLDRLKDGPGIILYTNLIGASAEQLGEILALARLKMFQVSIYGHDFETFRRITGRGQVQFRRLLANLETIADLVAQGVVPQALSICVRTERHYRLEDEASGELHVLLRRLISLGIPVSVQSCLDDWGGLVAETDLDGLDMPLIRGRLIPKNGACIEPFYNVQILADGRVNACACRSVGEDLIIGDLRQDDLKTILSARNPAYTGLIERQQKGDFPQTCRGCSFYRSIYDRRIRNASPLGHMSLEQFHTFLSRE	not soluble
AIIWRRAANLVLLDETGRRVDDLAFRSERADLAVIAGEGAERAVPEALEILSAARPILNRVRGLVRMGERRWDIVLDRGQRVLLPVEDPVAAVERMIALDEAEDLLDRDVISVDLR	not soluble
MAHHHHHHMSESPMCLFIACSTRDNTSREYIYTILKNRLLGSHVCIDTNILDVPTNLKFCSFDDLLKCADDLQKYDSYAYGCLKKIEKLAKEYDENIELKIIYQRQHINIDQYIRRFTWDDAKYPRNRSLTDTIDVMVNNITKLSDEIHIKSSMLNDLKEKKKKDIPKTDTNNFFLKNLNEILTPQTVSQADFMETEYLTTLIAYIPKNSVDEWLASYEKFSQYVVPRSTEQFKGLVDKDGNTLWKVYVFKKFAESFKEAAKLKKFVVKSFKYDEQKYNDVMESRTKVEAEIIRQETFLRRMCLAAFSDIFSAFIHINILRVFCESVLRFGVPPNFASFSIRINGESKEKKVRKKLYDIFSSTDSIGKNYIKRSDENDEEIYPYVSVSFKI	not soluble
GSHMNKKSFQCSNCSVTETIRWRNIRSKEGIQCNACFIYQRKYNKTRPVTAVNKYQKRKLKVQETNGVDSF	soluble
MGSDKIHHHHHHMAIGLSTYAFFWRASSRVPNPLGLAAMLEQTAESGAGVFQICDYAAVEALSPAELEKLRQRAVDLGIQLELGTRGLATDHLTRYLTMARALDVRFIRTMFNSATHKPTQDEALALLRCVLPEFEQYNIQLGLETYEQVKTRDVLAVVDAIDSPALGICLDPGNCVAALEYPHEVIELTASRVVNLHIKDFAFARQEGWVGFTYSGCLLGTGLLDYDALHQTIRPNERNINQIVEHWLPWQASAEETCRLEDAWTRHSLNYLYTRNPYANRSSHIL	not soluble
MYSIKMRSSNQDVHISGAETICEFDKIEQTVQRFYNKGFFHENGQPDFLNIKIQKIMEPIQQIKALQIIEDDKANLQHLTQECGVTEQALNQGMTYIKNETVYTGAIILSAISGKRLDSFGQRGIRATHFSFEDINNKGDLNERVTDALAIASCINAHPYVKGELCVSDDLTYTTGYFAAAKIGYHRLFDIKPVNTRYGGRIIFVDDCIDLNHYISFLESTPKQVVYETV	not soluble
MSVKPVDLNKLRSTHENLYETVVAISKKAREIQEEERAELEERLLPYKEMIRNPASESESEKVFPEQIAISVAFECREKPTQQALAQYLDHQYDYVLEKSPETKVAQNEDEDESDRD	not soluble
MEQQKKTTIVLFSGDYDKAMAAYIIANGAAAYDQEVTIFHTFWGLNALRKDEYVNVKKTFIEKVFGRMMPRGADKMGLSKMNFAGMGPKMIKGIMKKHNTMPLPDLIDLAKEQGIKLVACQMTVDLLGLKEEEIMEGVEFAGVGAYLADASDGNVNLFI	not soluble
MQRTLGEIMKIYFATGNPNKIKEANIILKDLKDVEIEQIKISYPEIQGTLEEVAEFGAKWVYNILKKPVIVEDSGFFVEALNGFPGTYSKFVQETIGNEGILKLLEGKDNRNAYFKTVIGYCDENGVRLFKGIVKGRVSEEIRSKGYGFAYDSIFIPEEEERTFAEMTTEEKSQISHRKKAFEEFKKFLLDRI	soluble
MTVIQKSSPTVKGVKTTTSDCTERRHSSSSPCKMSQNGSSGYYEGDVLLDDDALVSMPEATLIECFGNLAVTKRPAHLRPPAAFCLPFVSMNNDLTSGHALKHITLTSVFDALHPYVAMPYINRMDICSAMNVYWIRNCLEAEQSDLFHRFALEMQVHLSACFGCRVVLDIYGSTRNGFGTRFCDVDMSLSFSPSPPSWATNSDRVMRAVAKALVDFPKAVDERYVNAKVPIVRFRSSDMDMEADISYKNDLALHNTQLLQQYCKWDPERLPTLGVWVKAWAKRSGVGDASKGSLSSYAWIVMLIHYLQQVEPIPVLPCLQEMNHQKSENVYVQGYNTYYWKFVDTARTRRCRASVVDLFVGFLDYYATYFDYSTNVIQMVSKKLEFKPDRWCKYPMCIADPFETDHNLAQGVDMPMFEYIRSCMEHSKKVFTDRRMRSEFLSGYGFDVDEFDARHRGEMNMEMASQFGEFLLHKCIMVKQAPNRQFRDRSMSQSTSISNTSSISSSG	soluble
EKMTRDEIAYMLTNSEETLDADEIEMLQGVFSLDELMAREVMVPRTDAFMVDIQDDSQAIIQSILKQNYSRIPVYDGDKDNVIGIIHTKSLLKAGFVDGFDNIVWKRILQDPLFVPETIFVDDLLKELRNTQRQMAILLDEYGGMAGLVTLEDLLEEIVGEID	not soluble
MSLGNPAAMLAAYNTSTQVAPQPQLGPRAGEVQLSSEQQAMIDYVLAGKDVIVDATVGSGKTTAIQRLCSIMGADHDVLYLTYSKLLKVDAQQRVRGAKVQNYHGIVYPHLLKAGIKCGISESIREFNKNFKHISRTFPSYDLLVIDEYQDINEDYAELLRNIKSVNPLMQIVMVGDLEQKVRSDTEGHHHHHH	not soluble
MFKSVAKCDKVEKMLLGTFNLTLDNKNRISLPAKLRSFFDSSIVINRGFENCLEIRKPADFESYFQTFNNFPNTQKDTRTLKRLIFANANLVELDSANRILIPNNLISDAKLDKEIVLIGQFDHLEVWDKVQYEQYLASSESLETVAERMKDAK	soluble
MSLDFREVIEQRYHQLLSRYIAELTETSLYQAQKFSRKTIEHQIPPEEIISIHRKVLKELYPSLPEDVFHSLDFLIEVMIGYGMAYQEHQTLRGIQQEIKSEIEIAANVQQTLLGTKVPQEEALDIGAISVPAKQMSGDYYHFVKDKESINIAIADVIGKGIPAALCMSMIKYAMDSLPETGIHPSQVLKNLNRVVEQNVDASMFITMFYANYNMDKHQFTYASAGHEPGFYYSQKDNTFYDLEAKGLVLGISQDYDYKQFDQHLEKGDMIVLFSDGVTECRTENGFLERPDLQKLIEEHMCSSAQEMVKNIYDSLLKLQDFQLHDDFTLIVLRRKVEGGSHHHHHH	soluble
MSLAKRIVGSTPKQDGFRMPGEFEPQEKVWMIWPERPDNWRDGGKPVQEAFTNVAKAISQFTPMNVVVSQQQFQNCRRQLPPEITVYEMSNNDAWVRDCGPSFVINDHGEIRGVDWTFNAWGGLVDGLYFPWDQDDLVAQKICEIEHVDSYRTDDFVLEGGSFHVDGQGTVLTTEMCLLSEGRNPQLSKEAIEQKLCDYLNVEKVLWLGDGIDPEETNGHVDDVACFIAPGEVACIYTEDQNSPFYEAAQDAYQRLLKMTDAKGRQLKVHKLCCPVKNVTIKGSFKIDFVEGTMPREDGDICIASYMNFLITNDGVIVPQYGDENDHLALEQVQTMFPDKKIVGVNTVEVVYGGGNIHCITQQEPKREGGSHHHHHH	soluble
DTTQNLMIEGDNLEVLKLLQKSYAGKIKLIYIDPPYNTGKDFVYPDDFKDNIRNYLELTGQVEGGRKISSNTEASGRFHTDWLNMMYPRLKIARQLLSPTGVIAVHIDEHELEALVIVLRDLFGEENELGVTIWDKRNPKGDSRGIAYQHESLVLFARDAEELFARSPVRRAKRNAERMLNAASRFVTECGSIAEARAAYRSWVKSQSTLSGGESMYDKLSETGRVYRLVSMAWPNKKRAPADYFVPLKHPITGKDCPIPERGWRNPPATMKKLLEDGLIEFGPDEIMQPQRIYFLDENMYENVPSIVPFGGSDDELLKELSVPFEQPKPVDFSVQVISWCSSKDEIVMDFFAGSGTTGHAVMAQNAADGGNRRYILVQLPEPLDPENKDQKVAAEFCDKLGKPRTIAELTKERLRRAAKKIKEENPLFAGDLGFRVFKLDSSNIRA	not soluble
AFTCHCRRSCYSTEYSYGTCTVMGINHRFCCL	soluble
MERVTRKVQVTGGSTYIISLPPEWIKRNNIGKGSEVSVIDQGSDLVVTAPENSEPEITKKITLPGSYTGKPLQRLLTSTYISGFDTLVVVSKDKMTAEMRDDIKRFAKVVMGIEVIEETSRSIVLQNVLNASTFPLQKAIRRMSLNVSTMIEDTIKAIQDEDDDLVENIILRDDEVDRYQWYIYREVKIRCRDDRSNVYILVLSRILERIADHAVNICQAIKNRKGIKGKEKMVENLAYSKDVYNQAMETFYSKNFGEIDGIINRKSEITSRKYELLKILSYDSVLSSVAEEISRIGLYGTDIAELAMDLIMSDKDEFSV	not soluble
